Here are results for two molecules from paper PMC9514091 (2022).

B1: host PD-L1-Fc fusion protein (Fc fusion)
chain: FTITVPKDLYVVEYGSNVTLECRFPVDKQLNLLALVVYWEMEDKKIIQFVNGEEDLNVQHSSYNQRALLLKNQLPLGKAALQITDVKLQDAGIYCCLISYGGADYKRITLKVNASYRKINQTISVDPVTSEHELMCQAEGYPEAEVIWTSSDHRVLSGKTTITSSKREEKLFNVTSTLRINTTANEIFYCIFRRLGHEENSTAELV
B2: host PD-1-Fc fusion protein (Fc fusion)
chain: LDAPSRPWSPLTFSPARLTVPEGANATFTCSFSSKPEHFVLNWYRMSPSNQTDKLAAFPEDRSQPGRDRRFHVTPLPGGRHFHMSIMAAQRNDSGVYFCGAIYLPPKTQINESRPAELT

The target in assay [1] is B2. In words: SPR. For orientation: SPR reads the build-up and loss of mass on a sensor chip optically.
In assay [2] the target is De2-Fc fusion protein (Tursiops truncatus gammaherpesvirus 1). In words: SPR.

Molecule B1 displayed an off-rate constant (koff) in assay [1] of 0.000488 s⁻¹.
In assay [2], B2 registered an off-rate (koff) of 0.000696 s⁻¹.

As usually defined, the koff is the rate constant with which the complex falls apart.
